Source: patent US12091776B2, “Protease activity profiling via programmable phage display of comprehensive proteome-scale peptide libraries” (THE JOHNS HOPKINS UNIVERSITY, priority 2019, dated 2024)

B1: Hyls1 1-90: 90-aa human peptidome tile displayed on T7 phage (protein, UniProt Q96M11 1-90, looked up, fragment)
chain: MEELLPDGQIWANMDPEERMLAAATAFTHICAGQGEGDVRREAQSIQYDPYSKASVAPGKRPALPVQLQYPHVESNVPSETVSEASQRLR
modifications: displayed on T7 phage
B2: Znf462 1-90: 90-aa human peptidome tile displayed on T7 phage (protein, UniProt Q96JM2 1-90, looked up, fragment)
chain: MEVLQCDGCDFRAPSYEDLKAHIQDVHTAFLQPTDVAEDNVNELRCGSVNASNQTEVEFSSIKDEFAIAEDLSGQNATSLGTGGYYGHSP
modifications: displayed on T7 phage
B3: BSN 631-720: 90-aa human peptidome tile displayed on T7 phage (protein, UniProt Q9UPA5 631-720, looked up, fragment)
chain: ATPKVKSGVRRAEPATPVVKAVPEAPKGGEAEDLVGKPYSQDASRSPQSLSDTGYSSDGISSSQSEITGVVQQEVEQLDSAGVTGPHPPS
modifications: displayed on T7 phage
B4: TNS3 451-540: 90-aa human peptidome tile displayed on T7 phage (protein, UniProt Q68CZ2 451-540, looked up, fragment)
chain: YSGTRHVVPAQVHVNGDAALKDRETDILDDEMPHHDLHSVDSLGTLSSSEGPQSAHLGPFTCHKSSQNSLLSDGFGSNVGEDPQGTLVPD
modifications: displayed on T7 phage
B5: HUWE1 2251-2340: 90-aa human peptidome tile of HUWE1 displayed on T7 phage (protein, UniProt Q7Z6Z7 2251-2340, looked up, fragment)
chain: ETLSRIVNQPSSLFGSKSASSKNKSEQDAQGASQDSSSNQQDPGEPGEAEVQEEDHDVTQTEVADGDIMDGEAETDSVVIAGQPEVLSSQ
modifications: displayed on T7 phage
B6: hoxa2 271-360: 90-aa human peptidome tile displayed on T7 phage (protein, UniProt O43364 271-360, looked up, fragment)
chain: SFPVSPLTSNEKNLKHFQHQSPTVPNCLSTMGQNCGAGLNNDSPEALEVPSLQDFSVFSTDSCLQLSDAVSPSLPGSLDSPVDISADSLD
modifications: displayed on T7 phage
B7: ZNF469 811-900: 90-aa human peptidome tile displayed on T7 phage (protein, UniProt Q96JG9 811-900, looked up, fragment)
chain: PLRTGFLPSLAATPFPLPASDLDMEDDAKLDSLITEALNGMEYQSDNPEIDSSFIDVFADEEPSGPRGPSSGHPLKSKAGVTPESKAPPP
modifications: displayed on T7 phage
B8: HUWE1 2341-2430: 90-aa human peptidome tile of HUWE1 displayed on T7 phage (protein, UniProt Q7Z6Z7 2341-2430, looked up, fragment)
chain: EMQVENELEDLIDELLERDGGSGNSTIIVSRSGEDESQEDVLMDEAPSNLSQASTLQANREDSMNILDPEDEEEHTQEEDSSGSNEDEDD
modifications: displayed on T7 phage
B9: MAP3K14 496-585: 90-aa human peptidome tile displayed on T7 phage (protein, UniProt Q99558 496-585, looked up, fragment)
chain: LGQALEGLEYLHSRRILHGDVKADNVLLSSDGSHAALCDFGHAVCLQPDGLGKSLLTGDYIPGTETHMAPEVVLGRSCDAKVDVWSSCCM
modifications: displayed on T7 phage
B10: HMGXB4 226-315: 90-aa human peptidome tile displayed on T7 phage (protein, UniProt Q9UGU5 226-315, looked up, fragment)
chain: KSARDEQGALLLGHELQSFLKTARKKHKSSSDAHSSPGPEGCGSDASQFAESHSANLDLSGLEPILVESDSSSGGELEAGELVIDDSYRE
modifications: displayed on T7 phage
B11: UHRF1BP1L 991-1080: 90-aa human peptidome tile displayed on T7 phage (protein, UniProt A0JNW5 991-1080, looked up, fragment)
chain: EIGSETSDKKDSFYTDSSSILNYREDSNILSFDSDGNQNILSSTLTSKGNETIESIFKAEDLLPEAASLSENLDISKEETPPVRTLKSQS
modifications: displayed on T7 phage
B12: ANAPC1 1-90: 90-aa human peptidome tile displayed on T7 phage (protein, UniProt Q9H1A4 1-90, looked up, fragment)
chain: MSNFYEERTTMIAARDLQEFVPFGRDHCKHHPNALNLQLRQLQPASELWSSDGAAGLVGSLQEVTIHEKQKESWQLRKGVSEIGEDVDYD
modifications: displayed on T7 phage
B13: HUWE1 2296-2485: 90-aa human peptidome tile of HUWE1 displayed on T7 phage; position as printed (protein, UniProt Q7Z6Z7 2296-2485, looked up, fragment)
chain: PGEAEVQEEDHDVTQTEVADGDIMDGEAETDSVVIAGQPEVLSSQEMQVENELEDLIDELLERDGGSGNSTIIVSRSGEDESQEDVLMDEAPSNLSQASTLQANREDSMNILDPEDEEEHTQEEDSSGSNEDEDDSQDEEEEEEEDEEDDQEDDEGEEGDEDDDDDGSEMELDEDYPDMNASPLVRFERF
modifications: T7 phage display
notes: position as printed
B14: Efs 181-270: 90-aa human peptidome tile displayed on T7 phage (protein, UniProt O43281 181-270, looked up, fragment)
chain: PGEDDAPYDVPLTPKPPAELEPDLEWEGGREPGPPIYAAPSNLKRASALLNLYEAPEELLADGEGGGTDEGIYDVPLLGPEAPPSPEPPG
modifications: displayed on T7 phage
B15: LYST 1171-1260: 90-aa human peptidome tile displayed on T7 phage (protein, UniProt Q99698 1171-1260, looked up, fragment)
chain: NYSADFEHNDAMTEKSHQSAEELSSQPGDFSEEAEDSQCCSFKLLVEEEGYEADSESNPEDGETQDDGVDLKSETEGFSASSSPNDLLEN
modifications: displayed on T7 phage

Each molecule was assayed against T1, Caspase-1 (Homo sapiens, UniProt P29466) (assay: SEPARATE assay: human peptidome library digest with Caspase-1). Details: top 20 enriched peptides, human library (90-aa tiles); normalized read counts digest vs mock digest.
T1 construct: purchased BioVision
T1 sequence (P29466 120-297 limits assumed): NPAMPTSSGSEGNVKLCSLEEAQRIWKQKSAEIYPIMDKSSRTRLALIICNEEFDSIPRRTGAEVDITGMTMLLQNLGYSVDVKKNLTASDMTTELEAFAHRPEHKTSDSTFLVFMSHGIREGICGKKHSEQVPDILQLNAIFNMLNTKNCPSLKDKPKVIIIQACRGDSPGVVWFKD
T1 sequence (P29466 317-404 limits assumed): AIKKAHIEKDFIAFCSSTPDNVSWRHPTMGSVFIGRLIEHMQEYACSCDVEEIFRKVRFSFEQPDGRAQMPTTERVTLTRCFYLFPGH
Format: biochemical
Method: Streptavidin-coupled magnetic beads (Dynabeads M-280 Streptavidin, ThermoFisher Scientific) were washed (TBS, pH 7.4, 0.01% NP40) and resuspended in binding buffer (TBS, pH 7.4, 0.001% NP40) containing 2E9 plaque forming units per 10 μl of bead slurry. End-over-end mixing at room temperature was performed for one hour. Phage-coated beads were washed three times with wash buffer and transferred into two protein LoBind Eppendorf tubes blocked with TBS, pH 7.4 containing 1% BSA.
Digestion occurred overnight at room temperature with end-over-end rotation. […] To remove any residual biotinylated phage that may have been nonspecifically released, the 150 μl supernatant of the quenched digest reaction is then incubated with a fresh 10 μl of slurry volume M280 streptavidin beads (pre-washed three times with wash buffer) in a LoBind Eppendorf tube blocked with TBS, pH 7.4 containing 1% BSA at room temperature for one hour with end-over-end rotation.
10 μl slurry volume of protein G magnetic dynabeads were washed in buffer (TBS, pH 7.4, 0.01% NP40) and then resuspended in 50 μl TBS, pH 7.4, 0.01% NP40 containing 4 μg of M2 FLAG antibody for thirty minutes at room temperature with end-over-end rotation. The 150 μl quenched digest reaction is added to the 10 μl FLAG-coated Protein G beads and incubated for 60 minutes at room temperature with end-over-end rotation to capture phage particles released at the protease digest step. Beads are rinsed once with 100 μl wash buffer and stored at −80° C. until PCR amplification.
Library PCR preparation, high-throughput DNA sequencing, and peptide read count data generation was performed as described previously.^44 Briefly, library peptide inserts are amplified by resuspending 10 μl of FLAG-coated Protein G beads in PCR1 master mix containing the T7-Pep2_PCR1_F forward primer ([…]) (SEQ ID NO:3) and a T7-SEPARATE vector specific reverse primer ([…]) (SEQ ID NO:4), which includes an adapter sequence for sample-specific barcoding and Illumina P7 adapter incorporation during a subsequent PCR2 reaction. The PCR2 amplicons are pooled and sequenced using an Illumina NextSeq instrument in standard output mode to obtain single-end 50 nucleotide reads. Dual indexed sample demultiplexing and clonal read count determination were performed using exact sequence matching. […] To calculate the normalization factor, 100 peptides were randomly selected from the mock digest conditions with a read count ranging between 10 and 40. The median read count value for these 100 peptides is calculated for each sample. The random peptide selection and median calculation is performed 20 times and the average of the 20 median values is calculated for each sample. Finally, the normalization factor is calculated by dividing the average median value for each sample by that for one of the mock digest conditions. Read counts are then converted to normalized read counts by dividing each sample's read count values by the normalization factor. Fold enrichments are calculated for each peptide by dividing their normalized read counts in the digest condition by the normalized read counts in the mock digest condition. The fold enrichments can be visualized in an MA plot by transforming the normalized read count data into a log ratio (M, on the y-axis) and a mean average (A, on the x-axis) between the digest and mock digest conditions.

Going from B1 to B2, the Caspase1 fold change falls from 19.74 fold to 19.1 fold.

Compared with B3, B4 is lower in Caspase1 fold change: 18.78 fold for the first, 18.67 fold for the second.

Going from B5 to B6, the Caspase1 fold change falls from 17.58 fold to 17.06 fold.

First: B7
Second: B8
The Caspase1 fold change of the first is higher: 16.76 fold for the first, 16.55 fold for the second.

Compared with B9, B10 is lower in Caspase1 fold change: 16.5 fold for the first, 16.49 fold for the second.

Going from B11 to B12, the Caspase1 fold change falls from 16.39 fold to 16.35 fold.

Compared with B13, B14 is lower in Caspase1 fold change: 22.71 fold for the first, 21.06 fold for the second.

For B15, the Caspase1 fold change was 21.04 fold.
